Biological target: the molecule itself
Test: SDS-PAGE without reducing agent (bands identified by MALDI-MS); 3 ug purified PGLYRP1; Laemmli loading buffer without beta-mercaptoethanol (compared with 5 mM beta-mercaptoethanol); Coomassie stained gel

B1: human recombinant PGLYRP1/Tag-7/PGRP-S with a C-terminal triple DED epitope (natural protein, UniProt O75594 22-196, looked up)
chain: QETEDPACCSPIVPRNEWKALASECAQHLSLPLRYVVVSHTAGSSCNTPASCQQQARNVQHYHMKTLGWCDVGYNFLIGEDGLVYEGRGWNFTGAHSGHLWNPMSIGISFMGNYMDRVPTPQAIRAAQGLLACGVAQGALRSNYVLKGHRDVQRTLSPGNQLYHLIQNWPHYRSP
notes: called full-sized / full-size; On non-reducing SDS-PAGE the preparation is a mix of monomer (~25 kDa) and disulfide-linked homodimer (~60 kDa) of similar intensity; also called recombinant tagged PGLYRP1
**Q.** Which “stoichiometry N” value does the source give for B1 here?
**A.** 2

Reference: article PMC7785527, “Human Short Peptidoglycan Recognition Protein PGLYRP1/Tag-7/PGRP-S Inhibits Listeria monocytogenes Intracellular Survival in Macrophages” (Frontiers in Cellular and Infection Microbiology, 2020)
